Measured values reported in the supplement of paper PMC9876800.

Each substance was assayed on peptide library, one residue held at a place counted from the S/T acceptor (assay: relative phosphorylation of the sub-library (ratio to the mean residue at this position); human; higher = residue favoured). Details: N fixed; at -3.
Method in brief: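 Relative sub-library phosphorylation is the ratio of each sub-library's signal to the mean residue at that position. The signal came from phosphorimaging of spots on streptavidin membranes, quantified by densitometry, after purified recombinant kinases reacted with biotinylated degenerate peptide sub-libraries in 384-well plates. Reactions held 50 μM peptide and 50 μM ATP spiked with γ-32P-ATP for 90 min under kinase-specific conditions.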

TTK, construct: Full length, sequence (P33981 whole entry, looked up): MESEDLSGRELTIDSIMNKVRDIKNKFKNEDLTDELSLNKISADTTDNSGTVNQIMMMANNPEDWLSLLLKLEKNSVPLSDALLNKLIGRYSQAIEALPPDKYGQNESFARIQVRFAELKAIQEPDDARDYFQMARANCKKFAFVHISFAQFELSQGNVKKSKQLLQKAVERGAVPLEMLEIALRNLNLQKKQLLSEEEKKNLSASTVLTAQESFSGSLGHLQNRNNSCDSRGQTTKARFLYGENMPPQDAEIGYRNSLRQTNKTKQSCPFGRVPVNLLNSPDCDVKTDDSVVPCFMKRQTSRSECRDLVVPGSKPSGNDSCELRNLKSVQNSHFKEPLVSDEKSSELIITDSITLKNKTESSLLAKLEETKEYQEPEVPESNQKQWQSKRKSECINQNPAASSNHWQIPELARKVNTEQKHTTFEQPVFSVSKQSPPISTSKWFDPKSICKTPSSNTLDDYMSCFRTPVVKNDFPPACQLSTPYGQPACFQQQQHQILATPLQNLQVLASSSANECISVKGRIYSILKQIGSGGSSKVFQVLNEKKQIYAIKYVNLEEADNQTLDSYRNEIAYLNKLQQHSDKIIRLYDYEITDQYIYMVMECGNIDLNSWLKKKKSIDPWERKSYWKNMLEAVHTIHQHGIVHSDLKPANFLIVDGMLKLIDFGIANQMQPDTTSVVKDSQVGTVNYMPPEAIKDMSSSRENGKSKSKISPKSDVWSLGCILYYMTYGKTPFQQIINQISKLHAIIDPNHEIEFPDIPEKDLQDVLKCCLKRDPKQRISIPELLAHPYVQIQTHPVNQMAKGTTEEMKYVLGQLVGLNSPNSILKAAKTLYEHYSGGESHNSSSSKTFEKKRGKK
MELK, construct: aa1-340, sequence (Q14680 1-340, looked up): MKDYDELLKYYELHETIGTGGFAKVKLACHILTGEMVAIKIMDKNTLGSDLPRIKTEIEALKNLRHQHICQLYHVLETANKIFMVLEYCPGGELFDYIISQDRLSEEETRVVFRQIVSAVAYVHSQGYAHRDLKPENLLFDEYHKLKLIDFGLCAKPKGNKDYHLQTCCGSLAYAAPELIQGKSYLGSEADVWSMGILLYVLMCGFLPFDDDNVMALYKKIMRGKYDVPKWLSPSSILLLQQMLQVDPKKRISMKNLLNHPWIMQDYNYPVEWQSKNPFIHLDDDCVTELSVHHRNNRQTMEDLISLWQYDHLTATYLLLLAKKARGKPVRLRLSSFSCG
MASTL, construct: Full length, sequence (Q96GX5 whole entry, looked up): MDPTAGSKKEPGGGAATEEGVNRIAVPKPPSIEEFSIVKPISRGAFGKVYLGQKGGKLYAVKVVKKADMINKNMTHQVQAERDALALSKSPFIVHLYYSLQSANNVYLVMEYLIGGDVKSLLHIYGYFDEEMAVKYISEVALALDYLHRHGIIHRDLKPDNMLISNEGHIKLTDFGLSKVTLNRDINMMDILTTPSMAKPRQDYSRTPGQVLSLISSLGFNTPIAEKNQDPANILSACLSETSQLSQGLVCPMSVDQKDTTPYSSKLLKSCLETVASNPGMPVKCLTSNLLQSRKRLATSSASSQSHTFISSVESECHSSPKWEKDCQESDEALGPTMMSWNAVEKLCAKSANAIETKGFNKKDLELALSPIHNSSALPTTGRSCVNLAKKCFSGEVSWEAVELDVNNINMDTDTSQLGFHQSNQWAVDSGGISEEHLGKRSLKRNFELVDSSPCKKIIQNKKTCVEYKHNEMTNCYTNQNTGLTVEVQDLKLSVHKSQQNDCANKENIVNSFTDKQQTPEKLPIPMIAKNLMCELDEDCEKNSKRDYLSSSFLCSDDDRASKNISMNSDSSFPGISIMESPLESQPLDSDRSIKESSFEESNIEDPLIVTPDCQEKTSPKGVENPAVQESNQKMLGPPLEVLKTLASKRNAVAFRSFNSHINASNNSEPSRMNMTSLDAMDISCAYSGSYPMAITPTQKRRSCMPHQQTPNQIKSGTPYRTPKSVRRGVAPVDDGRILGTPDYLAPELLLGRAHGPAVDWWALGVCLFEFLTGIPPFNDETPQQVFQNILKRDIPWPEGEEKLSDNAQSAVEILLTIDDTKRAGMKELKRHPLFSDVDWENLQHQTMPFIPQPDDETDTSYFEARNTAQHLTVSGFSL
PAK3, construct: Full length, sequence (O75914 whole entry, looked up): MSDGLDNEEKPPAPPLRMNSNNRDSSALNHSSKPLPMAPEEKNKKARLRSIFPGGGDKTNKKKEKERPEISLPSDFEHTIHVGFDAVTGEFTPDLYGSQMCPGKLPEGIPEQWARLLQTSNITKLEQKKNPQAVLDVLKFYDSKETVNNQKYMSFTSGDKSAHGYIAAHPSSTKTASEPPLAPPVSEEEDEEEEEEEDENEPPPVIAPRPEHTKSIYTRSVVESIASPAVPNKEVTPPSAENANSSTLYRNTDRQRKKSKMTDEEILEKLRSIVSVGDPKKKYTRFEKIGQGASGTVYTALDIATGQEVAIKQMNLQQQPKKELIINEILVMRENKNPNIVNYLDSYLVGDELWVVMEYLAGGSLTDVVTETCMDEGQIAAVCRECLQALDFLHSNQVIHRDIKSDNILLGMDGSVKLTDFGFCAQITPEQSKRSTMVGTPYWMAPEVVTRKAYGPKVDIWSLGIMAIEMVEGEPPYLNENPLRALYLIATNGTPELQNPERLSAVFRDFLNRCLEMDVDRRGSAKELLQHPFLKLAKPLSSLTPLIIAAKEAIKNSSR
PRPF4B, construct: aa519-end, sequence (Q13523 519-1007, looked up): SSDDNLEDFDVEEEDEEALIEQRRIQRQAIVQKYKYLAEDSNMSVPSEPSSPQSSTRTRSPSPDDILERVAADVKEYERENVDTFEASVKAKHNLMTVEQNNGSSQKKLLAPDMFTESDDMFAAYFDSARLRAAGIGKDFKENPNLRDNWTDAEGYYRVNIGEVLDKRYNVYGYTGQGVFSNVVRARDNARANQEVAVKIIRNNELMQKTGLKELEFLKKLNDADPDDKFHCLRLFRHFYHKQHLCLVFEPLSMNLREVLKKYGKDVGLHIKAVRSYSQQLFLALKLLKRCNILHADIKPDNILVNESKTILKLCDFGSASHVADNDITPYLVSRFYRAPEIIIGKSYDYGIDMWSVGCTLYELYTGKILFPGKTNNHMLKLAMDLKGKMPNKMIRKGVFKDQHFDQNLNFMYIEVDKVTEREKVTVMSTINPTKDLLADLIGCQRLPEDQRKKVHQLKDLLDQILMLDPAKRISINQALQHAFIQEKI
CLK3, construct: Full length, sequence (P49761 whole entry, looked up): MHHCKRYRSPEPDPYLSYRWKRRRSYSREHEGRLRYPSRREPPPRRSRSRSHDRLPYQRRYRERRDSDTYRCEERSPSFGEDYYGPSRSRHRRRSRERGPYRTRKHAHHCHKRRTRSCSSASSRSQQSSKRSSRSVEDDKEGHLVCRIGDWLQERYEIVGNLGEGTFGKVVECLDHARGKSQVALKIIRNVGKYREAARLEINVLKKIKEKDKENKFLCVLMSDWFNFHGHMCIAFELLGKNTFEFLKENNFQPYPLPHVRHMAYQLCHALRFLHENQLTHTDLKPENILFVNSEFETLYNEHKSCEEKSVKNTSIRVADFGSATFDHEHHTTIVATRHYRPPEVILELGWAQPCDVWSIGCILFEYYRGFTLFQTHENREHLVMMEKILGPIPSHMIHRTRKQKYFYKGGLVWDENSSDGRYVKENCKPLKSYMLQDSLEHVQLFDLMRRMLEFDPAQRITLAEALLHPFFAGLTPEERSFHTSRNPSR
GRK5, construct: Full length, sequence (P34947 whole entry, looked up): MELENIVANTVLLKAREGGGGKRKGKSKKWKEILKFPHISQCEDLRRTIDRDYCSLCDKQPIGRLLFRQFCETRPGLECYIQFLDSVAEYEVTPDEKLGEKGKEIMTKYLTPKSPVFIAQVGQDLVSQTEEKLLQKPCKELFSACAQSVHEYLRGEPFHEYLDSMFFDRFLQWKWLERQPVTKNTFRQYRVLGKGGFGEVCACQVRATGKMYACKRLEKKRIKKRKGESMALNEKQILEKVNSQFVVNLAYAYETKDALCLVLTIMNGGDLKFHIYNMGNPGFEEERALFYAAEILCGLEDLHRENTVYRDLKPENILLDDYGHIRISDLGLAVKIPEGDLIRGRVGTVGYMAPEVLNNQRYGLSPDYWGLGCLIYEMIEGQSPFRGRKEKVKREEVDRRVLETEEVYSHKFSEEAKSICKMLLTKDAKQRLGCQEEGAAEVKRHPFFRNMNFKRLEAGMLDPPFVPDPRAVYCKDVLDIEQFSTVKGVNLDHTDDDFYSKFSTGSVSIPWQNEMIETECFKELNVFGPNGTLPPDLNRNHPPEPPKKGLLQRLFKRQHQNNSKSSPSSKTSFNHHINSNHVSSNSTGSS
RPS6KA6, construct: Full length, sequence (Q9UK32 whole entry, looked up): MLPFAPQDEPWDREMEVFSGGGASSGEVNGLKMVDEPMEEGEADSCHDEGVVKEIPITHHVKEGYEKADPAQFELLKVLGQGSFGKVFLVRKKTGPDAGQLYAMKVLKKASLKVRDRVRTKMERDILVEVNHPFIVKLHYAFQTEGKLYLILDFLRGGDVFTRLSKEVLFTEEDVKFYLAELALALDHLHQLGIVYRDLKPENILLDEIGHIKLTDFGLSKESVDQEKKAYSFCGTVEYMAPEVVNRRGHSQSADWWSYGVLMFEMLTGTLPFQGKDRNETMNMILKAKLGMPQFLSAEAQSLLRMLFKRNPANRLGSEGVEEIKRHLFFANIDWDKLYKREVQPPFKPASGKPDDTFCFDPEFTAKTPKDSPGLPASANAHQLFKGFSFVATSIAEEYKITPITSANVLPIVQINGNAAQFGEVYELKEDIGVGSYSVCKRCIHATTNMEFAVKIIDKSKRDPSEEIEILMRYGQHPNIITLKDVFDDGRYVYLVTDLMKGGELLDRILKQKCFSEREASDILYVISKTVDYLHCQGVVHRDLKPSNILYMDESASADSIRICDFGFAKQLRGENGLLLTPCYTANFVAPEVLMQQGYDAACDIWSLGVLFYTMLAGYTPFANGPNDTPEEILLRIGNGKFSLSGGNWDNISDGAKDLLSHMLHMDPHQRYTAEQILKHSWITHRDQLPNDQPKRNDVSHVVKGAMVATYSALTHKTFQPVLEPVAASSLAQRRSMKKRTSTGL

Substance | relative phosphorylation
MASTL, construct: Full length (from UniProt Q96GX5) | 1.03
MELK, construct: aa1-340 (from UniProt Q14680) | 0.742
CLK3, construct: Full length (from UniProt P49761) | 0.779
RPS6KA6, construct: Full length (from UniProt Q9UK32) | 0.541
GRK5, construct: Full length (from UniProt P34947) | 1.04
TTK, construct: Full length (from UniProt P33981) | 1.29
PRPF4B, construct: aa519-end (from UniProt Q13523) | 0.538

Same assay, conditions: N fixed; at -4

Substance | relative phosphorylation
PAK3, construct: Full length (from UniProt O75914) | 0.966
MASTL, construct: Full length (from UniProt Q96GX5) | 1.34
MELK, construct: aa1-340 (from UniProt Q14680) | 1.02
CLK3, construct: Full length (from UniProt P49761) | 0.961
RPS6KA6, construct: Full length (from UniProt Q9UK32) | 0.822
GRK5, construct: Full length (from UniProt P34947) | 0.984
TTK, construct: Full length (from UniProt P33981) | 1.22
PRPF4B, construct: aa519-end (from UniProt Q13523) | 1.08

Same assay, conditions: N fixed; at -5

Substance | relative phosphorylation
PAK3, construct: Full length (from UniProt O75914) | 0.863
MASTL, construct: Full length (from UniProt Q96GX5) | 1.05
MELK, construct: aa1-340 (from UniProt Q14680) | 0.711
CLK3, construct: Full length (from UniProt P49761) | 0.846
RPS6KA6, construct: Full length (from UniProt Q9UK32) | 0.687
GRK5, construct: Full length (from UniProt P34947) | 0.94
TTK, construct: Full length (from UniProt P33981) | 1.1
PRPF4B, construct: aa519-end (from UniProt Q13523) | 0.931

Same assay, conditions: P fixed; at +1

Substance | relative phosphorylation
PAK3, construct: Full length (from UniProt O75914) | 0.21
MASTL, construct: Full length (from UniProt Q96GX5) | 0.664
MELK, construct: aa1-340 (from UniProt Q14680) | 0.171
CLK3, construct: Full length (from UniProt P49761) | 4.92
RPS6KA6, construct: Full length (from UniProt Q9UK32) | 0.407
GRK5, construct: Full length (from UniProt P34947) | 0.564
TTK, construct: Full length (from UniProt P33981) | 0.275
PRPF4B, construct: aa519-end (from UniProt Q13523) | 5.85

Same assay, conditions: P fixed; at +2

Substance | relative phosphorylation
PAK3, construct: Full length (from UniProt O75914) | 0.655
MASTL, construct: Full length (from UniProt Q96GX5) | 0.65
MELK, construct: aa1-340 (from UniProt Q14680) | 0.598
CLK3, construct: Full length (from UniProt P49761) | 1.69
RPS6KA6, construct: Full length (from UniProt Q9UK32) | 0.498
GRK5, construct: Full length (from UniProt P34947) | 0.73
TTK, construct: Full length (from UniProt P33981) | 0.773
PRPF4B, construct: aa519-end (from UniProt Q13523) | 0.725

Same assay, conditions: P fixed; at +3

Substance | relative phosphorylation
PAK3, construct: Full length (from UniProt O75914) | 0.976
MASTL, construct: Full length (from UniProt Q96GX5) | 0.704
MELK, construct: aa1-340 (from UniProt Q14680) | 0.553
CLK3, construct: Full length (from UniProt P49761) | 1.81
RPS6KA6, construct: Full length (from UniProt Q9UK32) | 0.699
GRK5, construct: Full length (from UniProt P34947) | 0.997
TTK, construct: Full length (from UniProt P33981) | 0.532
PRPF4B, construct: aa519-end (from UniProt Q13523) | 2.53

Same assay, conditions: P fixed; at +4

Substance | relative phosphorylation
PAK3, construct: Full length (from UniProt O75914) | 1.45
MASTL, construct: Full length (from UniProt Q96GX5) | 1.31
MELK, construct: aa1-340 (from UniProt Q14680) | 1.23
CLK3, construct: Full length (from UniProt P49761) | 0.963
RPS6KA6, construct: Full length (from UniProt Q9UK32) | 1.66
GRK5, construct: Full length (from UniProt P34947) | 1.48
TTK, construct: Full length (from UniProt P33981) | 0.823
PRPF4B, construct: aa519-end (from UniProt Q13523) | 1.02

Same assay, conditions: P fixed; at -1

Substance | relative phosphorylation
PAK3, construct: Full length (from UniProt O75914) | 0.611
MASTL, construct: Full length (from UniProt Q96GX5) | 1.59
MELK, construct: aa1-340 (from UniProt Q14680) | 1.07
CLK3, construct: Full length (from UniProt P49761) | 2.15
RPS6KA6, construct: Full length (from UniProt Q9UK32) | 2.81
GRK5, construct: Full length (from UniProt P34947) | 0.986
TTK, construct: Full length (from UniProt P33981) | 0.891
PRPF4B, construct: aa519-end (from UniProt Q13523) | 0.785

Same assay, conditions: P fixed; at -2

Substance | relative phosphorylation
PAK3, construct: Full length (from UniProt O75914) | 0.817
MASTL, construct: Full length (from UniProt Q96GX5) | 0.804
MELK, construct: aa1-340 (from UniProt Q14680) | 0.419
CLK3, construct: Full length (from UniProt P49761) | 1.9
RPS6KA6, construct: Full length (from UniProt Q9UK32) | 0.914
GRK5, construct: Full length (from UniProt P34947) | 0.838
TTK, construct: Full length (from UniProt P33981) | 0.504
PRPF4B, construct: aa519-end (from UniProt Q13523) | 1.47

Same assay, conditions: P fixed; at -3

Substance | relative phosphorylation
PAK3, construct: Full length (from UniProt O75914) | 0.823
MASTL, construct: Full length (from UniProt Q96GX5) | 1.01
MELK, construct: aa1-340 (from UniProt Q14680) | 0.751
CLK3, construct: Full length (from UniProt P49761) | 1.76
RPS6KA6, construct: Full length (from UniProt Q9UK32) | 1.11
GRK5, construct: Full length (from UniProt P34947) | 0.977
TTK, construct: Full length (from UniProt P33981) | 0.959
PRPF4B, construct: aa519-end (from UniProt Q13523) | 0.587

Same assay, conditions: P fixed; at -4

Substance | relative phosphorylation
PAK3, construct: Full length (from UniProt O75914) | 1.14
MASTL, construct: Full length (from UniProt Q96GX5) | 0.965
MELK, construct: aa1-340 (from UniProt Q14680) | 1.01
CLK3, construct: Full length (from UniProt P49761) | 1.87
RPS6KA6, construct: Full length (from UniProt Q9UK32) | 1.49
GRK5, construct: Full length (from UniProt P34947) | 1.19
TTK, construct: Full length (from UniProt P33981) | 0.984
